From patent publication US20100297683A1 (QUEEN MARY AND WESTFIELD COLLEGE, published 2010)
Ends that are not written are not given here.

How the values were obtained:
[1] = test system: T1, AAPVAAK cross-linked dextran hydrogel
T1 sequence: AAPVAAK

[2] = test system: T2, AAPFFK cross-linked dextran hydrogel
T2 sequence: AAPFFK

BSA = molecular target: T3, BSA (UniProt P02769 25-607); test: QCM admittance (mass, delta XL) on peptide hydrogel film
T3 construct: Control protein added instead of HNE
T3 sequence (P02769 25-607 limits assumed): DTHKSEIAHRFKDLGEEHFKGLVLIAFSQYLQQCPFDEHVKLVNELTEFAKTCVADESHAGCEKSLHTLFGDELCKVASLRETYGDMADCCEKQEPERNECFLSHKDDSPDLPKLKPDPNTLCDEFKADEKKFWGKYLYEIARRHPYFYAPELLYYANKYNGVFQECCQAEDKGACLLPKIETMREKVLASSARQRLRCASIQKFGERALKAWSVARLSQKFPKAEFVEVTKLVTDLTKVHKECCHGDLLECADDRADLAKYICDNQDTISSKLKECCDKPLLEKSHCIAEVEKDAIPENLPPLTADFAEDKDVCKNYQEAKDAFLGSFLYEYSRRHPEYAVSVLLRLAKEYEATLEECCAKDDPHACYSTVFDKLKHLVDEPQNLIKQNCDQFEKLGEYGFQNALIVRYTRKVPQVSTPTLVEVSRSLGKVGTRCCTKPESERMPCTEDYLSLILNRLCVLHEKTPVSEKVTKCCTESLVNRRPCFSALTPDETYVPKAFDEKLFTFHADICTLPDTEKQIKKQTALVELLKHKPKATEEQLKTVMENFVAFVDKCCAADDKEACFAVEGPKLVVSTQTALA

[3] = molecular target: T4, AAPFFK cross-linked dextran hydrogel
T4 chain: AAPFFK

[4] = molecular target: T5, Ala-Ala-Pro-Val-Ala-Ala-Lys-NH2 (AAPVAAK) peptide cross-linker in acrylamide hydrogel film (not fully specified)
T5 chain: AAPVAAK

[5] = molecular target: T6, AAPVAAK cross-linked dextran hydrogel (not fully specified)
T6 chain: AAPVAAK

With cathepsin G the “degradation of hydrogel film monitored by QCM, 100 mU cathepsin G” value [1] was “slow degradation was observed, indicating some minor cross-sensitivity” and the “degradation of hydrogel film monitored by QCM resonant frequency, 100 mU/ml cathepsin G” value [2] was “Cathepsin G caused the films to degrade resulting in an increase in resonant frequency”.

B1: Ala-Ala-Pro-Val-Ala-Ala-Lys-NH2 (AAPVAAK) peptide cross-linker in acrylamide hydrogel film (peptide)
peptide: AAPVAAK-NH2
modifications: not fully specified (N-terminus); printed as Ala-Ala-Pro-Val-Ala-Ala-Lys-NH2; also: both ends capped with acryloyl group, copolymerised with acrylamide into hydrogel film
B1: no binding (BSA).

B2: Human Neutrophil Elastase (protein)
chain: IVGGRRARPHAWPFMVSLQLRGGHFCGATLIAPNFVMSAAHCVANVNVRAVRVVLGAHNLSRREPTRQVFAVQRIFENGYDPVNLLNDIVILQLNGSATINANVQVAQLPAQGRRLGNGVQCLAMGWGLLGRNRGIASVLQELNVTVVTSLCRRSNVCTLVRGRQAGVCFGDSGSPLVCNGLIHGIASFVRGGCASGLYPDAFAPVAQFVNWIDSIIQ
With B2 the “degradation of hydrogel film monitored by QCM, 10 U/ml HNE” value [3] was “There was no noticeable degradation of the hydrogel when HNE was introduced”, the “change of QCM parameter delta XL (mass of the hydrogel film) after addition of HNE” value [4] was “The gradual decrease in mass was due to the breakage of peptide bonds and the subsequent dissolution of the film resulting in mass loss from the surface of the crystal” and the “change of QCM resistive component delta R after addition of HNE” value [4] was “The gradual decrease was caused by the cleavage of peptide bonds and subsequent dissolution of the hydrogel by the action of the enzyme human neutrophil elastase”. For the same molecule, the “degradation of hydrogel film monitored by QCM resonance frequency (25% cross-linked film)” value [5] was “After 10 min of enzyme exposure, the film was completely degraded” and the “degradation of hydrogel film monitored by QCM resonance frequency (50% cross-linked, reduced film)” value [5] was “the rate of degradation increased when the HNE concentration was increased”.
